Test results published in patent US20180155407A1 (Sanofi, published 2018).
Numbered stars: 1 amine (or outer) side, 2 acyl side, 3 side chain; on linkers, the order of the positions; unused ones are H or OH. Square brackets hold non-standard residues; d marks the D form. Side chains are listed from the residue outwards. Ends that are not written are not given here. * marks the point of attachment. γGlu = O=C(O)[C@H](CCC(=O)[*:2])N[*:1]; Stearoyl = CCCCCCCCCCCCCCCCCC(=O)*; Palmitoyl = CCCCCCCCCCCCCCCC(=O)*; AEEA = NCCOCCOCC(=O)O; Aib = CC(C)(N)C(=O)O

Legend:
Experiment in all cases: cell-based or functional assay
human glucagon receptor = human glucagon receptor (human, UniProt P47871 26-477)
human glucagon receptor, sequence (P47871 26-477): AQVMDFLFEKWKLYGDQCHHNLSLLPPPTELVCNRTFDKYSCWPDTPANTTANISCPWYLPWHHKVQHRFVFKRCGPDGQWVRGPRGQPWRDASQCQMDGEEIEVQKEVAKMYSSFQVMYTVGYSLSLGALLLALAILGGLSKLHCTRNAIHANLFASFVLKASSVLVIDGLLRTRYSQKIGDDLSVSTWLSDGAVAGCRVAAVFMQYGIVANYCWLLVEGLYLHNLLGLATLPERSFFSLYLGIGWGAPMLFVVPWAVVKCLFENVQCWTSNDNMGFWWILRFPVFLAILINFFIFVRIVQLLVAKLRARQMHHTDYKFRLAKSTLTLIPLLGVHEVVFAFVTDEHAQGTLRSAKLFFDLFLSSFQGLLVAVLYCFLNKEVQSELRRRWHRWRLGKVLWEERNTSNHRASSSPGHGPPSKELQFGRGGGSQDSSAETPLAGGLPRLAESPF

human GIP receptor = target: T1, human GIP receptor (human, UniProt P48546 22-466)
T1 sequence (looked up): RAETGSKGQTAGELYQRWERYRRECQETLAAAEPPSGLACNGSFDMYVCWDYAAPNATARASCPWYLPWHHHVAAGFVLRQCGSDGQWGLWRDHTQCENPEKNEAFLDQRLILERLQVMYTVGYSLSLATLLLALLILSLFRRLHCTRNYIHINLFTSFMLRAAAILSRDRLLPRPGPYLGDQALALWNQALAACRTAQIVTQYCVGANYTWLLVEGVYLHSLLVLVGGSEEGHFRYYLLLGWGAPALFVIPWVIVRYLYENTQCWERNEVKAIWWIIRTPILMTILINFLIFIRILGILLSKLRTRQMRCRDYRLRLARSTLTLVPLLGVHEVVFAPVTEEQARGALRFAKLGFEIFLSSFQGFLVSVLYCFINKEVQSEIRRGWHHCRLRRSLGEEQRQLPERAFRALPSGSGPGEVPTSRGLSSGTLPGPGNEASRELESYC

human GLP-1 receptor = human GLP-1 receptor (human, UniProt P43220 24-463)

| Binder | EC50 hGlucagon R (cAMP formation) (human glucagon receptor) [pM] | EC50 hGIP R (cAMP formation) (human GIP receptor) [pM] | EC50 hGLP-1R (cAMP formation) (human GLP-1 receptor) [pM] |
| --- | --- | --- | --- |
| H[Aib]QGTFTSDLSKLK([γGlu-Palmitoyl])EKQRQ[Aib]EFIEWLKAGGPPS[Aib]KPPPK-NH2 (N-terminus assumed; SMILES CCCCCCCCCCCCCCCC(=O)N[C@@H](CCC(=O)NCCCC[C@H](NC(=O)[C@H](CC(C)C)NC(=O)[C@H](CCCCN)NC(=O)[C@H](CO)NC(=O)[C@H](CC(C)C)NC(=O)[C@H](CC(=O)O)NC(=O)[C@H](CO)NC(=O)[C@@H](NC(=O)[C@H](Cc1ccccc1)NC(=O)[C@@H](NC(=O)CNC(=O)[C@H](CCC(N)=O)NC(=O)C(C)(C)NC(=O)[C@@H](N)Cc1c[nH]cn1)[C@@H](C)O)[C@@H](C)O)C(=O)N[C@@H](CCC(=O)O)C(=O)N[C@@H](CCCCN)C(=O)N[C@@H](CCC(N)=O)C(=O)N[C@@H](CCCNC(=N)N)C(=O)N[C@@H](CCC(N)=O)C(=O)NC(C)(C)C(=O)N[C@@H](CCC(=O)O)C(=O)N[C@@H](Cc1ccccc1)C(=O)N[C@H](C(=O)N[C@@H](CCC(=O)O)C(=O)N[C@@H](Cc1c[nH]c2ccccc12)C(=O)N[C@@H](CC(C)C)C(=O)N[C@@H](CCCCN)C(=O)N[C@@H](C)C(=O)NCC(=O)NCC(=O)N1CCC[C@H]1C(=O)N1CCC[C@H]1C(=O)N[C@@H](CO)C(=O)NC(C)(C)C(=O)N[C@@H](CCCCN)C(=O)N1CCC[C@H]1C(=O)N1CCC[C@H]1C(=O)N1CCC[C@H]1C(=O)N[C@@H](CCCCN)C(N)=O)[C@@H](C)CC)C(=O)O) [SEQ ID NO: 14] | 31.6 | 18.2 | 5.7 |
| H[Aib]QGTFTSDLSKLK([γGlu-Stearoyl])EKQRQ[Aib]EFIEWLKAGGPPS[Aib]KPPPK-NH2 (N-terminus assumed; SMILES CCCCCCCCCCCCCCCCCC(=O)N[C@@H](CCC(=O)NCCCC[C@H](NC(=O)[C@H](CC(C)C)NC(=O)[C@H](CCCCN)NC(=O)[C@H](CO)NC(=O)[C@H](CC(C)C)NC(=O)[C@H](CC(=O)O)NC(=O)[C@H](CO)NC(=O)[C@@H](NC(=O)[C@H](Cc1ccccc1)NC(=O)[C@@H](NC(=O)CNC(=O)[C@H](CCC(N)=O)NC(=O)C(C)(C)NC(=O)[C@@H](N)Cc1c[nH]cn1)[C@@H](C)O)[C@@H](C)O)C(=O)N[C@@H](CCC(=O)O)C(=O)N[C@@H](CCCCN)C(=O)N[C@@H](CCC(N)=O)C(=O)N[C@@H](CCCNC(=N)N)C(=O)N[C@@H](CCC(N)=O)C(=O)NC(C)(C)C(=O)N[C@@H](CCC(=O)O)C(=O)N[C@@H](Cc1ccccc1)C(=O)N[C@H](C(=O)N[C@@H](CCC(=O)O)C(=O)N[C@@H](Cc1c[nH]c2ccccc12)C(=O)N[C@@H](CC(C)C)C(=O)N[C@@H](CCCCN)C(=O)N[C@@H](C)C(=O)NCC(=O)NCC(=O)N1CCC[C@H]1C(=O)N1CCC[C@H]1C(=O)N[C@@H](CO)C(=O)NC(C)(C)C(=O)N[C@@H](CCCCN)C(=O)N1CCC[C@H]1C(=O)N1CCC[C@H]1C(=O)N1CCC[C@H]1C(=O)N[C@@H](CCCCN)C(N)=O)[C@@H](C)CC)C(=O)O) [SEQ ID NO: 15] | 15.6 | 26.1 | 5.7 |
| H[Aib]QGTFTSDLSKLK([γGlu-γGlu-AEEA-Palmitoyl])EKQRQ[Aib]EFIEWLKAGGHPS[Aib]KPPPK-NH2 (N-terminus assumed; SMILES CCCCCCCCCCCCCCCC(=O)NCCOCCOCC(=O)N[C@@H](CCC(=O)N[C@@H](CCC(=O)NCCCC[C@H](NC(=O)[C@H](CC(C)C)NC(=O)[C@H](CCCCN)NC(=O)[C@H](CO)NC(=O)[C@H](CC(C)C)NC(=O)[C@H](CC(=O)O)NC(=O)[C@H](CO)NC(=O)[C@@H](NC(=O)[C@H](Cc1ccccc1)NC(=O)[C@@H](NC(=O)CNC(=O)[C@H](CCC(N)=O)NC(=O)C(C)(C)NC(=O)[C@@H](N)Cc1c[nH]cn1)[C@@H](C)O)[C@@H](C)O)C(=O)N[C@@H](CCC(=O)O)C(=O)N[C@@H](CCCCN)C(=O)N[C@@H](CCC(N)=O)C(=O)N[C@@H](CCCNC(=N)N)C(=O)N[C@@H](CCC(N)=O)C(=O)NC(C)(C)C(=O)N[C@@H](CCC(=O)O)C(=O)N[C@@H](Cc1ccccc1)C(=O)N[C@H](C(=O)N[C@@H](CCC(=O)O)C(=O)N[C@@H](Cc1c[nH]c2ccccc12)C(=O)N[C@@H](CC(C)C)C(=O)N[C@@H](CCCCN)C(=O)N[C@@H](C)C(=O)NCC(=O)NCC(=O)N[C@@H](Cc1c[nH]cn1)C(=O)N1CCC[C@H]1C(=O)N[C@@H](CO)C(=O)NC(C)(C)C(=O)N[C@@H](CCCCN)C(=O)N1CCC[C@H]1C(=O)N1CCC[C@H]1C(=O)N1CCC[C@H]1C(=O)N[C@@H](CCCCN)C(N)=O)[C@@H](C)CC)C(=O)O)C(=O)O) [SEQ ID NO: 16] | 18.6 | 7.5 | 1.3 |
| H[Aib]QGTFTSDLSKLK([γGlu-γGlu-AEEA-Palmitoyl])EKQRQ[Aib]EFIEWLKA[dA]GHPS[Aib]KPPPK-NH2 (N-terminus assumed; SMILES CCCCCCCCCCCCCCCC(=O)NCCOCCOCC(=O)N[C@@H](CCC(=O)N[C@@H](CCC(=O)NCCCC[C@H](NC(=O)[C@H](CC(C)C)NC(=O)[C@H](CCCCN)NC(=O)[C@H](CO)NC(=O)[C@H](CC(C)C)NC(=O)[C@H](CC(=O)O)NC(=O)[C@H](CO)NC(=O)[C@@H](NC(=O)[C@H](Cc1ccccc1)NC(=O)[C@@H](NC(=O)CNC(=O)[C@H](CCC(N)=O)NC(=O)C(C)(C)NC(=O)[C@@H](N)Cc1c[nH]cn1)[C@@H](C)O)[C@@H](C)O)C(=O)N[C@@H](CCC(=O)O)C(=O)N[C@@H](CCCCN)C(=O)N[C@@H](CCC(N)=O)C(=O)N[C@@H](CCCNC(=N)N)C(=O)N[C@@H](CCC(N)=O)C(=O)NC(C)(C)C(=O)N[C@@H](CCC(=O)O)C(=O)N[C@@H](Cc1ccccc1)C(=O)N[C@H](C(=O)N[C@@H](CCC(=O)O)C(=O)N[C@@H](Cc1c[nH]c2ccccc12)C(=O)N[C@@H](CC(C)C)C(=O)N[C@@H](CCCCN)C(=O)N[C@@H](C)C(=O)N[C@H](C)C(=O)NCC(=O)N[C@@H](Cc1c[nH]cn1)C(=O)N1CCC[C@H]1C(=O)N[C@@H](CO)C(=O)NC(C)(C)C(=O)N[C@@H](CCCCN)C(=O)N1CCC[C@H]1C(=O)N1CCC[C@H]1C(=O)N1CCC[C@H]1C(=O)N[C@@H](CCCCN)C(N)=O)[C@@H](C)CC)C(=O)O)C(=O)O) [SEQ ID NO: 17] | 22 | 11.4 | 1.8 |
| H[Aib]QGTFTSDLSKLK([γGlu-γGlu-Palmitoyl])EKQRQ[Aib]EFIEWLKAGGPPS[Aib]KPPPK-NH2 (N-terminus assumed; SMILES CCCCCCCCCCCCCCCC(=O)N[C@@H](CCC(=O)N[C@@H](CCC(=O)NCCCC[C@H](NC(=O)[C@H](CC(C)C)NC(=O)[C@H](CCCCN)NC(=O)[C@H](CO)NC(=O)[C@H](CC(C)C)NC(=O)[C@H](CC(=O)O)NC(=O)[C@H](CO)NC(=O)[C@@H](NC(=O)[C@H](Cc1ccccc1)NC(=O)[C@@H](NC(=O)CNC(=O)[C@H](CCC(N)=O)NC(=O)C(C)(C)NC(=O)[C@@H](N)Cc1c[nH]cn1)[C@@H](C)O)[C@@H](C)O)C(=O)N[C@@H](CCC(=O)O)C(=O)N[C@@H](CCCCN)C(=O)N[C@@H](CCC(N)=O)C(=O)N[C@@H](CCCNC(=N)N)C(=O)N[C@@H](CCC(N)=O)C(=O)NC(C)(C)C(=O)N[C@@H](CCC(=O)O)C(=O)N[C@@H](Cc1ccccc1)C(=O)N[C@H](C(=O)N[C@@H](CCC(=O)O)C(=O)N[C@@H](Cc1c[nH]c2ccccc12)C(=O)N[C@@H](CC(C)C)C(=O)N[C@@H](CCCCN)C(=O)N[C@@H](C)C(=O)NCC(=O)NCC(=O)N1CCC[C@H]1C(=O)N1CCC[C@H]1C(=O)N[C@@H](CO)C(=O)NC(C)(C)C(=O)N[C@@H](CCCCN)C(=O)N1CCC[C@H]1C(=O)N1CCC[C@H]1C(=O)N1CCC[C@H]1C(=O)N[C@@H](CCCCN)C(N)=O)[C@@H](C)CC)C(=O)O)C(=O)O) [SEQ ID NO: 6] | 16.4 | 7.9 | 2.8 |
| H[Aib]QGTFTSDLSKLK([γGlu-γGlu-AEEA-Palmitoyl])EEQRQ[Aib]EFIEWLKAGGHPS[Aib]KPPPK-NH2 (N-terminus assumed; SMILES CCCCCCCCCCCCCCCC(=O)NCCOCCOCC(=O)N[C@@H](CCC(=O)N[C@@H](CCC(=O)NCCCC[C@H](NC(=O)[C@H](CC(C)C)NC(=O)[C@H](CCCCN)NC(=O)[C@H](CO)NC(=O)[C@H](CC(C)C)NC(=O)[C@H](CC(=O)O)NC(=O)[C@H](CO)NC(=O)[C@@H](NC(=O)[C@H](Cc1ccccc1)NC(=O)[C@@H](NC(=O)CNC(=O)[C@H](CCC(N)=O)NC(=O)C(C)(C)NC(=O)[C@@H](N)Cc1c[nH]cn1)[C@@H](C)O)[C@@H](C)O)C(=O)N[C@@H](CCC(=O)O)C(=O)N[C@@H](CCC(=O)O)C(=O)N[C@@H](CCC(N)=O)C(=O)N[C@@H](CCCNC(=N)N)C(=O)N[C@@H](CCC(N)=O)C(=O)NC(C)(C)C(=O)N[C@@H](CCC(=O)O)C(=O)N[C@@H](Cc1ccccc1)C(=O)N[C@H](C(=O)N[C@@H](CCC(=O)O)C(=O)N[C@@H](Cc1c[nH]c2ccccc12)C(=O)N[C@@H](CC(C)C)C(=O)N[C@@H](CCCCN)C(=O)N[C@@H](C)C(=O)NCC(=O)NCC(=O)N[C@@H](Cc1c[nH]cn1)C(=O)N1CCC[C@H]1C(=O)N[C@@H](CO)C(=O)NC(C)(C)C(=O)N[C@@H](CCCCN)C(=O)N1CCC[C@H]1C(=O)N1CCC[C@H]1C(=O)N1CCC[C@H]1C(=O)N[C@@H](CCCCN)C(N)=O)[C@@H](C)CC)C(=O)O)C(=O)O) [SEQ ID NO: 18] | 46.6 | 5.6 | 1.7 |
